# Experimental data published in patent US20090111769A1, “Antithrombotic Compound” (priority 2005, published 2009).
# Counter-ions that a name gives are not always drawn.
# Tests used:
# [1] = tested on: human platelet aggregation induced by ADP; assay: In vitro test for inhibition of human platelet aggregation induced by ADP (platelet rich plasma); format: cell-based; conditions: read-out: IC50, inhibition of human platelet aggregation induced by 5 μM ADP
# Protocol: • 1. Sysmex blood cell counter model KX-21. • 2. […] Absorption is measured with the Labsystems iEMS program. • 3. Blood collection system 600 mL with needle, art P4203 (NPBI). • 4.
# The optical density (OD620) is then measured at 620 nm. […] This is to verify the stability of the platelets (absence of spontaneous platelet aggregation). […] Between two measurements, the plate is shaking for 40 seconds at 1,000 rpm. Each test compound is investigated in at least 2 experiments using PRP from different volunteers.
# The mean OD at each compound concentration (including vehicle) is calculated at t=0 min and t=10 min. The percentage inhibition at each concentration is calculated using the formula: […]
# [2] = tested on: human platelet aggregation induced by TRAP; assay: In vitro test for inhibition of human platelet aggregation induced by TRAP (washed platelets); format: cell-based; conditions: read-out: IC50, inhibition of human platelet aggregation induced by 5 μM TRAP
# Protocol: This aggregation can be determined by measuring the optical density of the WPL. The in vitro test described here is used to analyze the activity of a test compound to inhibit TRAP-induced aggregation of human platelets. […] Between two measurements, the plate is shaking for 40 seconds at 1,000 rpm.
# [3] = Pharmacokinetics after s.c. administration in rat (plasma concentration by anti-Xa activity); format: in vivo, male Wistar rats; conditions: male, Wistar, sc, 500 nmol/kg
# Protocol: The pharmacokinetic properties of compound 3 were studied in male Wistar rats of 300-400 gr. The rats were anaesthetized by inhalation of a mixture of O2/N2O/isoflurane, after which the right jugular vein was cannulated. The next day rats were treated s.c. with doses of 100 or 500 nmol/kg. After s.c. administration, blood was sampled at several time intervals. Then the blood was centrifuged after which the plasma was siphoned off and stored at −20° C. until use. The concentration of the tested compound was measured amidolytically with S2222 (Chromogenix, Chromogenics Ltd, Molndal, Sweden) by determination of the anti-Xa activity based on the method of Teien and Lie in the obtained plasma samples against a calibration curve which was made of the stock solution of the tested compound itself. (Teien A N, Lie M. Evaluation of an amidolytic heparin assay method increased sensitivity by adding purified antithrombin III. Thromb. Res. 1977, 10: 399-410). The concentration in the samples was expressed in nmol/mL and the kinetic parameters were calculated with the noncompartment model of WinNonlin.
Compound,IC50 [1] [nM],IC50 [2] [nM],Tmax ([3]; n = 3) [h],"AUC(0-inf) ([3]; n = 3, mean ± s.e.m.) [µM·h]","Cmax ([3]; n = 3, mean ± s.e.m.) [µM]","half-life ([3]; n = 3, mean ± s.e.m., read-out: T½ eli (converted)) [h]"
CCCCS(=O)(=O)N[C@@H](Cc1ccc(OCCCCC2CCNCC2)cc1)C(=O)O [tirofiban],30 to 60,30 to 60,,,,
"CO[C@H]1O[C@H](COS(=O)(=O)O)[C@@H](O[C@@H]2O[C@@H](C(=O)O)[C@@H](O[C@H]3O[C@H](COS(=O)(=O)O)[C@@H](O[C@@H]4O[C@H](C(=O)O)[C@@H](O[C@H]5O[C@H](COS(=O)(=O)O)[C@@H](OCCOCCOCCOCCNC(=O)COCCOCCOCCOCCNC(=O)c6cccc(S(=O)(=O)N[C@@H](Cc7ccc(OCCCCC8CCNCC8)cc7)C(=O)O)c6)[C@H](OC)[C@H]5OC)[C@H](OC)[C@H]4OC)[C@H](OS(=O)(=O)O)[C@H]3OS(=O)(=O)O)[C@H](OC)[C@H]2OC)[C@H](OS(=O)(=O)O)[C@H]1OS(=O)(=O)O [Compound 3, sodium salt]",,,2.5,75.3 ± 3.2,5 ± 0.4,9.3 ± 0.2
